Data reported in FireProtDB (doi:10.1006/jmbi.1993.1508).

Conditions: Bacillus amyloliquefaciens; pH 6.3; 25 °C; Urea; Fluorescence; MES 50 mM; reversible: yes; whole UniProt chain shown

B1: Ribonuclease wild type, P00648 (protein)
chain: MMKMEGIALKKRLSWISVCLLVLVSAAGMLFSTAAKTETSSHKAHTEAQVINTFDGVADYLQTYHKLPDNYITKSEAQALGWVASKGNLADVAPGKSIGGDIFSNREGKLPGKSGRTWREADINYTSGFRNSDRILYSSDWLIYKTTDHYQTFTKIR
denaturant m value: 1.92 kcal/mol/M
denaturant midpoint (higher = more stable): 4.58 M
unfolding free energy: 8.82 kcal/mol
